What all share (test): BLI, biotinylated S1 variant on streptavidin sensor
A general note: Biolayer interferometry detects binding as a change in optical thickness at a sensor tip.

For assay [1], the target named is T1, SARS-COV2 突变株 S1 Alpha B.1.1.7 (SARS-CoV-2 Alpha B.1.1.7, UniProt P0DTC2 16-685).
T1 construct: domain: S1; also called Alpha B.1.1.7的S1; Alpha突变体

The target in assay [2] is T2, SARS-COV2 突变株 S1 Delta B.1.617.2 (SARS-CoV-2 Delta B.1.617.2, UniProt P0DTC2 16-685).
T2 construct: domain: S1; also called Delta B.1.617.2的S1; Delta突变体

The target in assay [3] is T3, SARS-COV2 突变株 S1 Omicron BA.2 (SARS-CoV-2 Omicron BA.2, UniProt P0DTC2 16-685).
T3 construct: domain: S1; also called Omicron BA.2的S1; Omicron突变体

Results on one molecule are retold here after CN114773459A (UNIV SHENZHEN, dated 2022).

Usually Kd stands for the concentration at which binding is half-saturated. A higher Kd goes with weaker binding.

B1: 纳米抗体Nb-H6 (VHH)
VHH: QLVESGGGLVQAGDSLRLSCAASERALSSFHMGWFRQAPGKQRAFVAAIKWRDGTTYYADSVKGRFTISRDNAKNTVYLQMNSLEPEDTAVYYCYYRGRWGTYWGQGTQVTVSS
B1: the Kd in assay [1] came to 1080 nM; in assay [2] it was 1120 nM; in assay [3], 200 nM.
